Data published in the supplement of paper PMC9112550, “Optimization of the antimicrobial peptide Bac7 by deep mutational scanning” (BMC Biology, 2022).

Each sequence was assayed on Escherichia coli TOP10 (assay: shrunken log2 fold change of peptide-encoding DNA abundance (4.5 h post-induction vs induction); higher = less antimicrobial activity (less host growth inhibition)). Details: time post-induction: 4.5 h; library: site-saturation at positions 5, 18, 19, 20.
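Further: peptides expressed intracellularly from a pBAD plasmid library in pooled LB shake-flask culture, induced with 0.3% L-arabinose, DNA abundance read by NGS, three biological replicates, DESeq2 with apeglm shrinkage.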

| Sequence | shrunken log2 fold change |
| --- | --- |
| RRIRTRPPRLPRPRPRPAALPRP | 0.0806 |
| RRIRWRPPRLPRPRPRPTEWPRP | 0.327 |
| RRIRMRPPRLPRPRPRPYILPRP | -1.08 |
| RRIRNRPPRLPRPRPRPNQKPRP | -0.174 |
| RRIRTRPPRLPRPRPRPHPKPRP | -0.0492 |
| RRIRKRPPRLPRPRPRPAHCPRP | -0.0571 |
| RRIRKRPPRLPRPRPRPMCHPRP | -0.0182 |
| RRIRFRPPRLPRPRPRPMVFPRP | -0.0469 |
| RRIRYRPPRLPRPRPRPRHTPRP | -0.108 |
| RRIRHRPPRLPRPRPRPWFLPRP | -0.315 |
| RRIRCRPPRLPRPRPRPDHGPRP | -0.234 |
| RRIRVRPPRLPRPRPRPREHPRP | 0.322 |
| RRIRCRPPRLPRPRPRPGHRPRP | -0.0213 |
| RRIRARPPRLPRPRPRPRNWPRP | 0.388 |
| RRIRTRPPRLPRPRPRPEPKPRP | 0.376 |
| RRIRARPPRLPRPRPRPYKYPRP | -0.227 |
| RRIRFRPPRLPRPRPRPTDKPRP | 0.00702 |
| RRIRCRPPRLPRPRPRPSELPRP | -0.107 |
| RRIRTRPPRLPRPRPRPPHTPRP | 0.0399 |
| RRIRMRPPRLPRPRPRPLPTPRP | 1.36 |
| RRIRERPPRLPRPRPRPIKQPRP | -0.00681 |
| RRIRCRPPRLPRPRPRPGTGPRP | 0.119 |
| RRIRSRPPRLPRPRPRPCYTPRP | -0.0751 |

| Sequence | shrunken log2 fold change |
| --- | --- |
| RRIRWRPPRLPRPRPRPALVPRP | 0.98 |
| RRIRNRPPRLPRPRPRPILEPRP | 0.109 |
| RRIRWRPPRLPRPRPRPCNCPRP | -0.289 |
| RRIRFRPPRLPRPRPRPAKGPRP | 0.141 |
| RRIRLRPPRLPRPRPRPMYAPRP | -0.248 |
| RRIRARPPRLPRPRPRPQYDPRP | -0.018 |
| RRIRQRPPRLPRPRPRPWRWPRP | -0.0392 |
| RRIRTRPPRLPRPRPRPMPHPRP | 0.182 |
| RRIRRRPPRLPRPRPRPMDFPRP | 0.195 |
| RRIRSRPPRLPRPRPRPPFGPRP | 0.398 |
| RRIRNRPPRLPRPRPRPPDTPRP | -0.0361 |
| RRIRTRPPRLPRPRPRPHRSPRP | 0.0963 |
| RRIRPRPPRLPRPRPRPHMYPRP | -0.316 |
| RRIRGRPPRLPRPRPRPQARPRP | 0.3 |
| RRIRDRPPRLPRPRPRPGSWPRP | 0.817 |
| RRIRIRPPRLPRPRPRPKEQPRP | 0.0307 |
| RRIRNRPPRLPRPRPRPCFEPRP | 0.00026 |
| RRIRFRPPRLPRPRPRPVRQPRP | 0.0478 |
| RRIRRRPPRLPRPRPRPTIHPRP | -0.0346 |
| RRIRVRPPRLPRPRPRPLAQPRP | 0.187 |
| RRIRMRPPRLPRPRPRPVHTPRP | 0.213 |
| RRIRHRPPRLPRPRPRPCYAPRP | -0.291 |
| RRIRTRPPRLPRPRPRPWLPPRP | -0.164 |

| Sequence | shrunken log2 fold change |
| --- | --- |
| RRIRWRPPRLPRPRPRPLMQPRP | 0.217 |
| RRIRFRPPRLPRPRPRPMWRPRP | -0.0033 |
| RRIRKRPPRLPRPRPRPDHQPRP | -0.0497 |
| RRIRDRPPRLPRPRPRPPHMPRP | 1.51 |
| RRIRVRPPRLPRPRPRPPIMPRP | -0.486 |
| RRIRGRPPRLPRPRPRPFLCPRP | 0.231 |
| RRIRARPPRLPRPRPRPTAFPRP | 0.815 |
| RRIRRRPPRLPRPRPRPCNDPRP | -0.0872 |
| RRIRNRPPRLPRPRPRPVWYPRP | -0.326 |
| RRIRTRPPRLPRPRPRPAMDPRP | -0.708 |
| RRIRTRPPRLPRPRPRPILVPRP | -0.0468 |
| RRIRMRPPRLPRPRPRPQKGPRP | -0.0123 |
| RRIRQRPPRLPRPRPRPPNQPRP | 0.448 |
| RRIRRRPPRLPRPRPRPAETPRP | -0.0645 |
| RRIRFRPPRLPRPRPRPDRFPRP | 0.042 |
| RRIRFRPPRLPRPRPRPQYEPRP | 0.0625 |
| RRIRGRPPRLPRPRPRPGRCPRP | 1.09 |
| RRIRHRPPRLPRPRPRPTMVPRP | -0.224 |
| RRIRQRPPRLPRPRPRPACEPRP | -0.0795 |
| RRIRSRPPRLPRPRPRPGGRPRP | 0.284 |
| RRIRRRPPRLPRPRPRPNNYPRP | -0.378 |
| RRIRFRPPRLPRPRPRPFKHPRP | -0.2 |
| RRIRGRPPRLPRPRPRPTVDPRP | 0.836 |

| Sequence | shrunken log2 fold change |
| --- | --- |
| RRIRYRPPRLPRPRPRPSYYPRP | -1.66 |
| RRIRFRPPRLPRPRPRPLSAPRP | -0.039 |
| RRIRRRPPRLPRPRPRPDSEPRP | 0.036 |
| RRIRHRPPRLPRPRPRPLPDPRP | -0.299 |
| RRIRGRPPRLPRPRPRPPIAPRP | 0.874 |
| RRIRCRPPRLPRPRPRPTEIPRP | -0.146 |
| RRIRARPPRLPRPRPRPALEPRP | 1.19 |
| RRIRMRPPRLPRPRPRPHFHPRP | -0.376 |
| RRIRTRPPRLPRPRPRPHIYPRP | -0.00363 |
| RRIRERPPRLPRPRPRPHSIPRP | -0.0535 |
| RRIRRRPPRLPRPRPRPHEDPRP | 0.0653 |
| RRIRTRPPRLPRPRPRPVGHPRP | -0.00107 |
| RRIRHRPPRLPRPRPRPYCKPRP | -1.02 |
| RRIRRRPPRLPRPRPRPGPQPRP | 0.337 |
| RRIRFRPPRLPRPRPRPPRWPRP | 0.659 |
| RRIRQRPPRLPRPRPRPMSYPRP | -0.01 |
| RRIRFRPPRLPRPRPRPWIEPRP | -0.224 |
| RRIRTRPPRLPRPRPRPVEHPRP | 0.0387 |
| RRIRFRPPRLPRPRPRPMHYPRP | -0.0476 |
| RRIRCRPPRLPRPRPRPQKQPRP | 0.0183 |
| RRIRLRPPRLPRPRPRPVQWPRP | 0.288 |
| RRIRVRPPRLPRPRPRPTWYPRP | -0.0971 |
